± gives the half width of the 95% confidence interval.
Legend:
[1] = folding stability dG unfold from chymotrypsin proteolysis; higher = more stable
Method: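 Folding stability of de novo designed mini-proteins (<80 aa, no Cys; designed by TrROS, TrMRF, ProteinMPNN and the joint model) was measured by cDNA display proteolysis with trypsin and chymotrypsin. Each protease was used at 11 concentrations in a threefold dilution series plus a no-protease condition. K50 was inferred by Bayesian fitting of sequencing counts, and dG unfold was derived against a sequence-predicted unfolded-state K50 (Tsuboyama et al. method). Sequences shown include variable-length N-terminal GS-type padding (SAGGSAGG...) inside a display construct carrying a PA tag. Rows were kept only if the AF2 dimer inter-PAE was >15, to exclude likely homo-oligomers.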

[2] = folding stability dG unfold (combined trypsin and chymotrypsin); higher = more stable
Procedure, shortened: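 Mini-proteins designed to be under 80 residues and free of cysteine were carried in a PA-tagged cDNA display construct and digested with trypsin and with chymotrypsin. Each protease was applied at 11 threefold-diluted concentrations, alongside a no-protease condition, before sequencing. K50 came from Bayesian fitting of the sequencing counts, and unfolding free energy was obtained by comparing it with a sequence-predicted unfolded-state K50 and a shared folded-state K50, for each protease separately or for both together. Designs were retained only if their AlphaFold2 dimer inter-PAE exceeded 15.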

SAGGSAGGSAPEPVVAKLVEVVTLPDGTPVLLFVVDHPDGPPELRLSTDALIEGDDLVDPSSAGGSAGGSAG [r3_261_TrMRF]
folding stability dG unfold [1]: 0.404 ± 0.078 kcal/mol
folding stability dG unfold [2]: -0.0131 ± 0.2 kcal/mol

SAGGPWHEITVRAKGPPGNTPEQAVDEVADELADNNPDFTVEIQEVEVNPEDGQVEATIRVEDGKIVSAGGS [r8_26_TrROS]
folding stability dG unfold [1]: -0.0882 ± 0.034 kcal/mol
folding stability dG unfold [2]: < -1 kcal/mol

SAGGSPWIEVEIPFPPGMPADELADFIAEELDENGHDVKVDDVEQDPEEGYMKFRVRDGKSVEIPWSAGGSA [r2_242_TrROS]
folding stability dG unfold [1]: -0.522 ± 0.28 kcal/mol
folding stability dG unfold [2]: -0.521 ± 0.23 kcal/mol

SAGMEVVEKIAKELGYENVKVESITPQVSPSGTTTLTITVKISKPGSTKTFTITASPEEIEEEIKKALSSAG [r5_549_JUSTAS]
folding stability dG unfold [1]: 4.72 ± 0.14 kcal/mol
folding stability dG unfold [2]: 4.77 ± 0.23 kcal/mol

SAGGGSMVVEKPVALPPDTDVEEVAKEVAEELFPEDEKYKIEVERYPDSVRITVYDPKNGKPVIETVDSAGG [r13_724_JUSTAS]
folding stability dG unfold [1]: -0.565 ± 0.45 kcal/mol
folding stability dG unfold [2]: < -1 kcal/mol

SAGGSAGGSAGGEVPADAVIEERLEVTDVSTGEKRRFRRTVTVEVDPDGSLRVRTEVEEESAGGSAGGSAGG [r7_19_JUSTAS]
folding stability dG unfold [1]: -0.184 ± 0.63 kcal/mol
folding stability dG unfold [2]: -0.215 ± 0.3 kcal/mol

SMNVTEEVTVEELPSGEVLTETVVTEPSGVTTVTTTLASPPDRPVVETRTTTYPPDGSSTETSTVAPLPGSA [r9_1179_JUSTAS]
folding stability dG unfold [1]: 0.507 ± 0.054 kcal/mol
folding stability dG unfold [2]: 0.00729 ± 0.23 kcal/mol

SAGGPISVGEIEHAADNVDNSHQNGDPNEMMELYDEAEEIQDQYEENGDPEVRDEVKKVVERAKRHMGSAGG [r13_137_TrROS]
folding stability dG unfold [1]: 0.364 ± 0.077 kcal/mol
folding stability dG unfold [2]: -0.423 ± 0.45 kcal/mol

SAGGSAGGSAGGNPVYRTRAEILETVPVGEDETVWLPGTAAPVSPSTTVLLARVYSVPADSAGGSAGGSAGG [r11_793_TrMRF]
folding stability dG unfold [1]: -0.355 ± 0.27 kcal/mol
folding stability dG unfold [2]: < -1 kcal/mol

SAGGSAGGSAGDPNYVQVTIRMPMERRNPEDGKWERNPMEITIPFKSKDQADKIAEEIGISAGGSAGGSAGG [r11_984_TrROS]
folding stability dG unfold [1]: -0.0109 ± 0.18 kcal/mol
folding stability dG unfold [2]: -0.375 ± 0.23 kcal/mol

SAGGSAEEEEITIKLRITVYNEETGKPVKEIEIEIKVKKGQTLEQILEEAKKLLEEKGYKIVEIEISAGGSA [r15_195_TrROS_Hall]
folding stability dG unfold [1]: 4.42 ± 0.31 kcal/mol
folding stability dG unfold [2]: 4.52 ± 0.46 kcal/mol

SAGGSAGGSKKIVLVLKVKKEKAKEKVEKAKKELEKALPKDYKIKSIEVKYDPETDKVIIVADSAGGSAGGS [r12_308_TrMRF]
folding stability dG unfold [1]: 0.376 ± 0.49 kcal/mol
folding stability dG unfold [2]: -0.0532 ± 0.28 kcal/mol

SAGGSAGGSAGGSMVIKFTHPDGDPNLPVETLNLKKEELSEEKIKELKEKNPDIKIELKSAGGSAGGSAGGS [r4_422_JUSTAS]
folding stability dG unfold [1]: 0.257 ± 0.33 kcal/mol
folding stability dG unfold [2]: -0.326 ± 0.39 kcal/mol

SAGGSAGGSAGGMKPQPIKVTVERHFPDGTVELEELVFPSPEEVEKFLKENPDWTVVEVESAGGSAGGSAGG [r11_802_JUSTAS]
folding stability dG unfold [1]: 2.6 ± 0.081 kcal/mol
folding stability dG unfold [2]: 3.4 ± 0.22 kcal/mol

SAGGSAGGSAGSMTVTSKYTLPGSSDVPVEVEVYSEAPVAVLTKPGAKTVLPLEALKALLSAGGSAGGSAGG [r11_370_JUSTAS]
folding stability dG unfold [1]: 0.346 ± 0.14 kcal/mol
folding stability dG unfold [2]: -0.0987 ± 0.084 kcal/mol

SDPLGTPVPLTYRVLLTFPGVSRPFLGPGGVVRSVSVNPTVLVPGPANSYPAVRELAEPLGLSVSVTPLASA [r9_1209_TrMRF]
folding stability dG unfold [1]: -0.289 ± 0.21 kcal/mol
folding stability dG unfold [2]: -0.871 ± 0.23 kcal/mol

SAGGSAGGSASEEEKPPKIKRVTINIPEEELRERFPGNPEWAENIAREAAKEGFDEVEIDINSAGGSAGGSA [r18_441_TrROS]
folding stability dG unfold [1]: 0.942 ± 0.12 kcal/mol
folding stability dG unfold [2]: 0.521 ± 0.17 kcal/mol

SAGGSAKPGEKLKIRMWNPDGETHEFDVKIPPGVRIRMPDNGQEQTFPPGDEIPFPPNMPIQVEKVSAGGSA [r15_152_TrROS]
folding stability dG unfold [1]: 0.309 ± 0.086 kcal/mol
folding stability dG unfold [2]: -0.121 ± 0.29 kcal/mol

SAGGSAGGSAGGMKPGEVVLIYVERSYYDPEKGPLTPRNARYELLNYKPLPLKPKDPKVLSAGGSAGGSAGG [r7_522_JUSTAS]
folding stability dG unfold [1]: -0.3 ± 0.26 kcal/mol
folding stability dG unfold [2]: -0.516 ± 0.16 kcal/mol

SAGLFDYLHKHNGLVRAALRRNGPPVVIPRLFRIEPDGDTYKLSVPDPDGVPQDWEVLDVEVFKPEDAISAG [r14_427_TrMRF]
folding stability dG unfold [1]: 0.275 ± 0.19 kcal/mol
folding stability dG unfold [2]: -0.0844 ± 0.18 kcal/mol

SAGGSAGGSAGGGMPVPPVEVVEVSEEVRPLPPSSDKTVRRVTRTLPDGSTLTFEEPPESAGGSAGGSAGGS [r10_945_JUSTAS]
folding stability dG unfold [1]: 0.459 ± 0.04 kcal/mol
folding stability dG unfold [2]: 0.064 ± 0.062 kcal/mol

STITDVEIYKMPPGEEYPFPNGRKIPPGDYMIYNEDNGHYMSADQIRRILQEIEQELEKLPPPKKPENDKSA [r9_517_TrROS]
folding stability dG unfold [1]: 0.251 ± 0.29 kcal/mol
folding stability dG unfold [2]: -0.162 ± 0.43 kcal/mol

SAGGSAGGGGGFRVKAEVKHGGKEYPMEILIDPSEGNINIQMPNGKSITLPLNDVKIDEVEPVNSAGGSAGG [r6_185_TrROS]
folding stability dG unfold [1]: 0.341 ± 0.29 kcal/mol
folding stability dG unfold [2]: 0.101 ± 0.34 kcal/mol

SAGGSAGGSAGIPADAPEAVVRLDLYPDGPDTVVTVEAPFKDIPLDDIPENAVVRLEASPLGSAGGSAGGSA [r18_21_TrMRF]
folding stability dG unfold [1]: 0.0909 ± 0.06 kcal/mol
folding stability dG unfold [2]: -0.539 ± 0.1 kcal/mol

From the supplement of paper PMC12764529
